Protein production data for 21 sequences are collected here from a protein production outcome set (Wang et al. 2014).
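Also: failed if final PepcDB status was selected cloned or expressed and not failed if soluble or beyond.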

The data set can be described thus: label from the status in PepcDB records.
Take “TACKGDYKDAARQVRCGTLVVDETRGDPKSRRITVAVAIVKASEPKAGQPPVVYLHGGPGGSAVGGLPRMLKSKAALEYVAVDQDWIFIDQRGGGQSDPNLDCPGANLTDAGPPSDKDAQAIIACMKAFQAKGVNLSRYNAVEVAKDVQDLRKLLKLPLIDLYGGSYGTRIEAAIQTHAAEGVRAVVQDSPWPPEADWTVGGPAMVSSSIDIVMAKCAKVAECAKRYPDLKAKLAVVAERWLAGPQTINGKTYTADDLGGWLMDASYFTASVLPRDLWKIIEGDVSPVAEFVESRDYYSEGQFMTHLCKEEIPFEARAAVADGTQKDPIARLMVASMQRIHDVCAAIDVGPINKVEQAPVKTAIPTLFLAAEIDPGCPPELTRAAAKGYQGSQVVIVTNATHGVSRSSPCVRKMIRSFFQDPTKPVDRSCLPAADTPMAFMYQ”: the protein production result was “failed”.

Take “MPTKKADIYTLAKFGDLGAFKESFKIENINDKSESGSGLLHYAISGLKFDIAMFLIENGIDVNITNEVGQTALHYICNYPNIDVAKCILKHGGDINIRDKYYNNALWTAVFNCKGRYYDMVELFMEYSPDVETKNNAGRSPLDFAIQVGNEKLIKMLRKKE”: the protein production result is reported as “failed”.

On to “MDIKKIAQDDKSLGIDESNKDLFQDGILNIALFGVDSREHDNVGRSDSIIIATIDTKHDKIKLTSLMRDSYVEVDGHGKTKLTHAYAYGGPTLALKTINENFGLDIKDYVTVNFDNLAEIIDDLGGVPINIKPYEVKEVNNYAKNVAEIAGREYTPVSEGEQVLNGAQAVGYSRIRYVGDGDYERTERQRNVLDAIIKKLSALKPSEYPETIKKLLPYVETNLTPSKILSIATSVASTGIPPVENMRFPLDGYCKGEMIDGVWYLTFDEAKTKEQIQDYIYKDVNPKLEHHHHHH”, for which the protein production result is given as “failed”.

For the sequence “MKLSIVIVNYRVPYFLEQCLLSVRKSAQGIDTEVWVVDNNSGDGSVEYLQSRFPEVHFVANEENVGFSRANNQAIRLSKGQYVLLLNPDTLIGESTLRTVVDFMDSKPNAGGLGVKMLNGHGRFLPESKRGFPSPWVSFCKLSGLNRLFPHSSRFNRYHLSYLSRDEVHKVEVLSGAFMLMRREALDKVGLLDERFFMYGEDIDLSYRLILGGYDNYYYPTPILHYKGESSSVSDVKYLRSFYGAMGLFFDKYYRNRMNPLLHGLINVVIKARTALALMLRSLRKVPAAEKPAKIFYWHPSEGEAAISAYHDRSHILINTDEVTCDRLLLTMEKLADRKHTFHLTNDTTKRVISP”, the protein production entry is “failed”.

Consider “LVAVDEFIRRHFSQPVTMAELTGIAGMSAAQLERYCKKVFHLSPRQMIHKARLEHAHRLLHADMAITEVALRCGYADHSAFSRQFKALTGLTPRQYRQQ”, for which the protein production result is reported as “failed”.

Consider “MKEDAGNPLHLTSLNHVSVLCRSVDESMNFYQKVLGFIPIRRPESLNFEGAWLFGHGIGIHLLCAPEPEKLPKKTAINPKDNHISFQCESMGVVEKKLEEMGIDYVRALVEEGGIQVDQLFFHDPDGFMIEICNCDSLPVVPLVGEMARSCSRVKLHQMVQPQPQTQIHQVVYP”, for which the protein production entry was “failed”.

Take “MGHHHHHHSHMVTHSKFPAAGMSRPLDTSLRLKTFSSKSEYQLVVNAVRKLQESGFYWSAVTGGEANLLLSAEPAGTFLIRDSSDQRHFFTLSVKTQSGTKNLRIQCEGGSFSLQSDPRSTQPVPRFDCVLKLVHHYMPPPGAPSFPSPPTEPSSEVPEQPSAQPLPGSPPRRAYYIYSGGEKIPLVLSRPLSSNVATLQHLCRKTVNGHLDSYEKVTQLPGPIREFLDQYDAPL”: the protein production entry is listed as “failed”.

“MIRQKSIRRVKPPEDYQARLATPFAVLGLRTDEDWLTDIEYLPPDTPTLVPQTPLAREVCDQLQAYLADPGFVFDLSLHIGGTVHQRRVWQAIQDIPAGATRSYAAIAVELHSAPRAVGQACGANRLPIVIPCHRVIAKSGGLGGFMNASDGLPLTIKRWLLQHEGI”: the protein production result is “failed”.

In the case of “MKTASYAQSFSRAAKEYDAYAYLQQTVARELASWIEGMECESILDLGCGTGALWRALRFKPRFFTGVDLSMEMLDLHPQDPAIRLIQSDFNHPSLYEHSYDLIAASSSLQWSRDLAQSFDLIAKSAQNVAFAIFTSESLWEIHDYVDSHSPIPSKERIESLLKERFAGEFELKRYPLSFPSRVAMLSYLKGSGISGGRRLGFAQSK”, the protein production entry was “failed”.

For “METAKDGEQSPSEASPPTQAGPETISEPVPLEEEGQPLYHEETIDLGGDDFASEETEPTSEGSHNFGDKLNEHMMESVLISDSPNNSEGDVGDLGCLQDVGEPPRGATDHRLPDSTDKEVVDTLSNGSETDGDDTPRDISDMTPDSRASLKEDSTQEDVPAMPALENAGTEEVGPKDSLVPREEQTSEVSSSQSSSKDEPLPVCTIFSQATSTSSQPHLFLQDGFESQMVKSPSFSSTSETSAKTPPPMVQPSPSLSTFFGDTMSSNSLASDFFDSFTTSTFISVSNPNAGSPVPEKLASLTAPVGEKSPDSTSPSYSTRMDRSESGVSRAALDVPESPKPFSQIQAVFAGSDDPFATALSMSEMDRRNDAWLPSQATREVLMSVATQQYGTVFIDKENLTMPGLKFDNIQGDAVKDLMLRFLGEKAAAKRQVLNASSVEQSFVGLKQLISCRNWRAAVDLCGRLLTAHGQGYGKSGLPTNHTTDSLQLWFVRLALLVKLGLFQNAEMEFEPFGNLDQPDLYYEYYPHVYPGRRGSMVPFSMRILHAELQQYLGNPQESLDRLHRVKTVCSKILANLEQGLAEDGGLSSVTQESRQASVQLWRSRLGRVLYSMANCLLLMKDYVLAVNAYLTVIKYYPEQEPQLLSGIGRILLQIGDIKTAEKYFQDVEKVTQKLDGLQGKIMVLMNRAFLYLGQNNFAEAHKFFTEILRMDPTNAVANNNAAVCLLYLGKLKDSLRQLEAMVQQDPRHYLHESVLFNLTTMYELESSRSMQKKQSLLEAVASKEGDSFNTQCLKLA”, the protein production entry is “failed”.

On to “MSDIKHEKKLANMDTPGETTKSFENKLDEEIPDIEESDFINSPPFSDEIFSPEDSKQVEISELSKQAYSLLKGNSITEAINVFKKILELDPTNNYALVGLGDAERKNNKFNEAIKFYKQCLEHHPSNNYALFGLADCYKSMNQFPRAIAIWEEYLKFDDKNITVLTRVADAYRKTKEFEKAEKLYQKVLEKSPKNAYALIGLGHLNYDFKKYREALVYWEKVMESSGELVDIRILTSIGNCYRKMKLFDRGVYYFERALERSPDNFYGLFGLADCYRGLNQQYNSIVYWKKILELDPNNKVILTRIGDAYRSMNDFEKAKESYQKALDIDFDSYAMLGLAILCKLQQKYDQAITTLTHLKDTGDTNYNYRVYLELAQCYIEKKEKQKAIETLIDFQKLGIKNQTVSDLLFELTKNDH”, for which the protein production result is recorded as “failed”.

“PPLEINSRVSLKVGETIESGTVIFCDVLPGKESLGYFVGVDMDNPIGNWDGRFDGVQLCSFACVESTILLHINDIIPES”: the protein production entry is on record as “not failed”.

Take “MRDFGEILAENRKKKGYSQSDLVNLLSQEGIQVTTKALSKWENNAREPALHVFLTLCQLLDIEDIYESFFGENPYNIMSGLNEEGRNKLIEFADILKASKKFSPLSAKIIPFHHPVEITWEPVSAGTGNYLEDSVKETYDVGHLAPEQTDFGVRISGDSMEPLYHTDDVAWIQKKDSLANGEIGIFYLNGNTYIKELHDEPDGVYLISLNQKYRPIQVLESDSFKIFGKVIGKCKGAEIPGFHLEHHHHHH”: the protein production entry is recorded as “not failed”.

In the case of “MPEQDVPRVRLFGAHELKISDIFDEKKDIYYVPIFQGKDDVNKLHQSAYTGKNTKCAILDSGVLTDHPYLKDRMDAIEDFTGHGFQDREGHGTAVALNLAMTAPDASILIGKVYENDDVPLSEYINRIARGVNWAIDSGARIINLSVGMEKRKEDISNYPGCSEAVKNVCKAITQAIENGISVLVAAGANFPADCHESIIVVGLPGNPVYPKDVHPTVYSPFSPILVPTFLFEGYAHLKMGMYEQALALFKQAADLHPEDHQLWKYQALCRYGLKKYNDAILSFDKALAIKQSDVKTWYLKGITLLALTQNDKAIECFDEVLKLVNNAGLTGMKLTEFSNSISDDWYNMGVYYEQASRYDEAANCYDKAIRIDPLNAKAWNNRGVILAIEEKYEDSIKYFEVATELKPSMVDAWFNKGLALSRIGKYEESIEFFDKAIAIDPASNKALKERIRVSGKLKSKEE”, the protein production entry was “failed”.

As for “MKFKRLRTSENKLYYKAMELYKISFPFHEQRKSSLQEEILKNKEYQFNLIYDKNQFVGIILCWETDDFIYVEHFCIFPEMRNNRYGQRALELLNKKGKTIILEIDLPIDEISIYRKAFYERVKYKTNNYEHIHPPYHEKFNGHNLIVMSYPEKLSKMEYDKFNHYLRNNVMSF”, the protein production entry is listed as “failed”.

On to “MAKYVVTSAWPYVNHVPHLGTLIGSVLSADIYARYLRLRGRQVVFVSGSDEHGTPIELEARKKGVHPKELTDQVHEYDVKMWREYRISFDNYSRTESPVHKEFVMEFMKKLEENGYIFSQEEVLPYCERDKIFLPDRFVEGTCPYCGYEKARGDQCDECGRLLHPTELKNPRCALCGSKPVYKSTRHWFIDLRRVQDRLLKWLESHGELQDSVKKYSINWVAQGLKPRSVTRDLSWGVPAPFKGAEGKTIYVWFDALLGYVSATKELFIMRRGDPEEWKSWWWDSGTRTVYFIGKDNIPFHAIILPALFLASHDPYVLPWRISATEYLMYEGQQFSKSRRIGVWIDEALEIAPADYWRWALARMRPEARDTNFTWKEFYRIVNTELNDDIGNFVNRVLSLVRSRMSGVAPEPEDLGEHQGFVERVRRAAWAVAEDLEAIRIKRATEGILEIAREGNAYLNRTQPWKLLSQDREEGVRALSAALYAVKTLAHLLAPFTPDAADRLWSMLGLAGSVHEAVWDEWLDRPLPGGARIVRVEPLFQKLPDDFLERVDEIVEDARRRAREKRPPLLRD”, for which the protein production entry is listed as “failed”.

As to “SKQKLVLASGSPRRLELLHQIGIEPARLMPMDIDETPVKLEHPRTLCRRLSQQKAEAAQAALKSEQAWKDAYVLGSDTVVAVGRRIVGKAEYTEEASAALHLLSGRSHWVYTGICLVTPDGKIRQKVAETKVRFKRLSTREIDAYIASGQWRGKAGAYGIQGIAGAFVQKLTGSYTNVVGLPLYETMSLLSGEGFEV”, the protein production result was “failed”.

For “MFTESSPAMDPDLPESETRPEFNPSSTDSTAMAESTDAGEPTAFELASSQVTSVADLPPERFNSLDELTHDLGSLHELSTRGSWQAILEKISQARALFLLTKPHEHLTYLTYQVMALAKLRRSDEASHELNSLHDFDGTHYRYESFPEIYPNRRGSMVPFSLRWLYALIPTKLGNRQEGLDRLYVLLDFVRDRIREKESQSLESSVELWKKRETFVMNCLLGFHLGHKEFGVSLDLMKELINRDPLDPVLISKLGSVQMQFGDVEGAKTTFDRVEKMLNEGKSNGLLNEIQFNNLVGRNKALVYVVAKDYVSAVREYDKCIERDNSDIIAVNNKALCLMYLRDLSDAIKVMESALERVPTAALNESLVVNLCSMYELAYVNHTDVKRTLNNWIARVAPDDFDSSCTRV”, the protein production result is reported as “failed”.

“MRRSRSSAAAKLRGQKRSGASGASAAPAASAAAALAPSATRTRRSASQAGSKSQAVEKPPSEKPRLRRSSPRAQEEGPGEPPPPELALLPPPPPPPPTPATPTSSASNLDLGEQRERWETFQKRQKLTSEGAAKLLLDTFEYQGLVKHTGGCHCGAVRFEVWASADLHIFDCNCSICKKKQNRHFIVPASRFKLLKGAEHITTYTFNTHKAQHTFCKRCGVQSFYTPRSNPGGFGIAPHCLDEGTVRSMVTEEFNGSDWEKAMKEHKTIKNMSKE”: the protein production entry was “failed”.

Take “MSLSALESSSRFEVRYFFERALECYKPFSDTVLLLPCTARKPYLTSRTHRALRSKVKVNVNEIIISSPLVVPREFELLYPAVNYDTPVTGHWSEEEVSFVAGWLKRFIEKGGFRKVVAHVTGGYRKVVERVEDEVEAEVVYTAEKDVLSDESIERLKQEIESKGKVDLYRRILEHMLSYQFGITWSGKVAGRYPELELLEGKKRLARVDRIYGMLDIYEKIAAYLLEKNIYTVEIGDFEVKGTIFAGGVLRADEKIRPNDVVVFHNSRIFGVGLAAMSGKEMAGSEKGIAINVKRKFSEGHHHHHH”: the protein production result is “not failed”.

In the case of “QIAAVDPAGMSVIRDRNQLFRVNSAGEVENTYTLKVINKTQQVQEYNLDVKGLNDVSWYGKQTIQVEPGEVLNLPMSLGADPDKLNSAITTIQFILTDKSNEFTIEVESRFIKKL”, the protein production result is “not failed”.
